To fix the notation:
B1: heme-hemopexin complex (human plasma derived hemopexin saturated with hemin) (ligand)
chain: TPLPPTSAHGNVAEGETKPDPDVTERCSDGWSFDATTLDDNGTMLFFKGEFVWKSHKWDRELISERWKNFPSPVDAAFRQGHNSVFLIKGDKVWVYPPEKKEKGYPKLLQDEFPGIPSPLDAAVECHRGECQAEGVLFFQGDREWFWDLATGTMKERSWPAVGNCSSALRWLGRYYCFQGNQFLRFDPVRGEVPPRYPRDVRDYFMPCPGRGHGHRNGTGHGNSTHHGPEYMRCSPHLVLSALTSDNHGATYAFSGTHYWRLDTSRDGWHSWPIAHQWPQGPSAVDAAFSWEEKLYLVQGTQVYVFLTKGGYTLVSGYPKRLEKEVGTPHGIILDSVDAAFICPGSSRLHIMAGRRLWWLDLKSGAQATWTELPWPHEKVDGALCMEKSLGPNSCSANGPGLYLIHGPNLYCYSDVEKLNAAKALPQPQNVTSLLGCTH
modifications: heme (hemin) bound non-covalently in a 1:1 ratio
notes: also called heme-hpx complex; heme-hx complex

The target in test [1] is T1, HuLRP1(1-24)-FLAG-HuLRP1(2481-2942)-8His (huLRP1 soluble minireceptor, ligand binding domain III) (human, UniProt Q07954 2481-2942).
T1 construct: Made in ExpiCHO-S cells; also called LRP1.3; LRP1 domain III
T1 sequence (Q07954 other isoform, or with tags, fused parts or gaps): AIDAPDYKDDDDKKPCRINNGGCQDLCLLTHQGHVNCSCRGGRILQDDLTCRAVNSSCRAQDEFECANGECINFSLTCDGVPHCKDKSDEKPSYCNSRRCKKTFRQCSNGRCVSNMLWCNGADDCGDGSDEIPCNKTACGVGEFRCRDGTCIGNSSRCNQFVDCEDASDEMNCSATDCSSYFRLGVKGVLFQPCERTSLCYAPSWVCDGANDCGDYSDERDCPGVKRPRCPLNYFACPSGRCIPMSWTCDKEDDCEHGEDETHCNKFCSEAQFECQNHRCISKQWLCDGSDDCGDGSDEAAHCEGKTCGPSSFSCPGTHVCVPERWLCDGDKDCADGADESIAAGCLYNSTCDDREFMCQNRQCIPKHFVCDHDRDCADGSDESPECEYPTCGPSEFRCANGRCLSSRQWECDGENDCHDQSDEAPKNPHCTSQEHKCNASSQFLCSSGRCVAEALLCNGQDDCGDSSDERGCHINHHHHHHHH
Briefly: SPR, LRP1.3 tethered on NTA chip (capture cross link), heme-hpx (batch TO411122) 0.62-20 µM, 1:1 steady state fit, run 2. Here is the method: (§1) Heme-hpx complex was injected in duplicate at concentrations ranging from 0.62 to 20 μM in 2-fold dilution series over 30 seconds. The dissociation was monitored for 60 seconds. No regeneration step was required between cycles since the complex dissociated fully. Sensogram data from active surface (flow cell 4) were double referenced by subtraction of data from reference surface (flow cells 3) and blank injections. Sensogram data were fit to a 1:1 steady state model.
(§2) In a next step and as mentioned above an alternative assay setup was developed as illustrated in FIG. 7A.
Background: SPR reads the build-up and loss of mass on a sensor chip optically.

The target of test [2] is T1, HuLRP1(1-24)-FLAG-HuLRP1(2481-2942)-8His …. Briefly: SPR (Biacore), LRP1.3 tethered on NTA chip, heme-hpx complex ("aged", batch TO342022B by the legend) as analyte at 0.62-20 µM, steady state 1:1 fit. How it is done: as §1
Test [3] has the same target. Briefly: SPR, LRP1.3 tethered on NTA chip, heme-hpx complex batch TO341022BM (“New”), 1:1 steady state fit, N = 1.
For test [4] the target is unchanged. Nature of the test: SPR (Biacore, 37 °C), heme-hpx (batch TO411122) captured by anti-hemopexin polyclonal antibody on CM5, LRP1.3 0.312-20 µM as analyte, kinetic fit (not optimal).
For test [5] the target is unchanged. Nature of the test: SPR, LRP1.3 tethered on NTA chip (capture cross link), heme-hpx (batch TO411122) 0.62-20 µM, 1:1 steady state fit, run 3. How it is done: as §1, §2
For test [6] the target is unchanged. Nature of the test: SPR, LRP1.3 tethered on NTA chip, heme-hpx complex batch TO342022B (“Aged”), 1:1 steady state fit, N = 1. How it is done:
as §1

The target of test [7] is T2, HuLRP1 (3332-3779)-8His (second ligand binding domain IV construct) (human, UniProt Q07954 3332-3779).
T2 construct: Any N-terminal residues left from a signal peptide or tag are not described; also called LRP1.5; LPR1 domain IV (LRP1.5)
T2 sequence (Q07954 other isoform, or with tags, fused parts or gaps): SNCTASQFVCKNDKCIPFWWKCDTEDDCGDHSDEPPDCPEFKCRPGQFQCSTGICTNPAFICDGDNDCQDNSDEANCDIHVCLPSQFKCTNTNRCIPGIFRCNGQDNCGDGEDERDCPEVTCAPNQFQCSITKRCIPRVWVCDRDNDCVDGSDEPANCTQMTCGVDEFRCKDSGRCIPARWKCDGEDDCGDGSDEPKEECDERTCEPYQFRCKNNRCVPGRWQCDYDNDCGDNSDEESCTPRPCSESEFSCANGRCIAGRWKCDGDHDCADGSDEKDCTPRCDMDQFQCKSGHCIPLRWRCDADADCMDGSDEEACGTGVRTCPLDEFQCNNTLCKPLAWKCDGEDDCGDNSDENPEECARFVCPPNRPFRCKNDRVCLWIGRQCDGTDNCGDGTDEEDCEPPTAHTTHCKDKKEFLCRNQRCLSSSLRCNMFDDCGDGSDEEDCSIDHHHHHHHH
Nature of the test: BLI (Octet), LRP1.5 captured on anti-Penta-His biosensor, heme-hpx complex as analyte at 0.312-2.5 µM [LRP1.5]. Here is the method:
(§3) Individual LRP1 domains were immobilized on the biosensor surface. After baseline recording four concentration of heme-hpx complexes were tested (2.5, 1.25, 0.625 and 0.312 μM). For LRP1.3 the reference subtracted and processed kinetic dataset was globally fitted using a 1:1 binding model. Heme-hpx is shown in red curves, fitted curve as solid black line. LRP1.1, LRP1.2, LRP1.4 and LRP1.5 were not fitted.
(§4) As described above, anti-penta His antibody pre-coated biosensors (Cat N°: 18-5120, ForteBio, TechNote 43: Anti-Penta-HIS (HIS1K) biosensors for label-free analysis of HIS-tagged proteins, 2019) were used. The different LRP1 domains were immobilized at a concentration of 15 μg/mL in 10× kinetic buffer (PBS, 0.1% BSA, 0.02% Tween20). Heme-Hpx complex was diluted in 10× kinetic buffer (PBS, 0.1% BSA, 0.02% Tween20). The association and dissociation kinetics of heme-hemopexin complex, were performed at concentrations of 2.5, 1.25, 0.625 and 0.3125 μM. A reference control was included in every experiment (sensor loaded with ligand without analyte). Data was acquired on an OctetRED96 (FortéBio) at 30° C. with the following settings:
(§5) To investigate and determine, which of the LRP1 domains bind the heme-hpx complex, each of the domains were tethered on biosensors (HIS1K; anti-penta-His) via the expressed His-tag.

Test [8] deals with T1, HuLRP1(1-24)-FLAG-HuLRP1(2481-2942)-8His …. Nature of the test: SPR (Biacore), LRP1.3 tethered on NTA chip, heme-hpx complex ("new", batch TO341022BM by the legend) as analyte at 0.62-20 µM, steady state 1:1 fit. Here is the method:
as §1

The target is the same in test [9]. Nature of the test: SPR, LRP1.3 tethered on NTA chip (capture cross link), heme-hpx (batch TO411122) 0.62-20 µM, 1:1 steady state fit, run 1. How it is done: as §1
Test [10] shares this target. Nature of the test: SPR (Biacore), LRP1.3 tethered on NTA chip, heme-hpx complex batch TO411122 (as titled on the sheet) as analyte at 0.62-20 µM, steady state 1:1 fit. How it is done:
as §1

For test [11] the target is unchanged. Briefly: BLI (OctetRED96, 30 °C), LRP1.3 captured on anti-penta-His biosensor, heme-hpx (batch TO294001) 2.5-0.312 µM, global 1:1 fit. How it is done: as §3
as §4, with “settings: […]” for “settings:”

Test [12] deals with T3, HuLRP1(1-24)-FLAG-HuLRP1(3293-3783)-8His (huLRP1 soluble minireceptor, ligand binding domain IV) (human, UniProt Q07954 3293-3783).
T3 construct: also called LRP1.4; LPR1 domain IV
T3 sequence (Q07954 other isoform, or with tags, fused parts or gaps): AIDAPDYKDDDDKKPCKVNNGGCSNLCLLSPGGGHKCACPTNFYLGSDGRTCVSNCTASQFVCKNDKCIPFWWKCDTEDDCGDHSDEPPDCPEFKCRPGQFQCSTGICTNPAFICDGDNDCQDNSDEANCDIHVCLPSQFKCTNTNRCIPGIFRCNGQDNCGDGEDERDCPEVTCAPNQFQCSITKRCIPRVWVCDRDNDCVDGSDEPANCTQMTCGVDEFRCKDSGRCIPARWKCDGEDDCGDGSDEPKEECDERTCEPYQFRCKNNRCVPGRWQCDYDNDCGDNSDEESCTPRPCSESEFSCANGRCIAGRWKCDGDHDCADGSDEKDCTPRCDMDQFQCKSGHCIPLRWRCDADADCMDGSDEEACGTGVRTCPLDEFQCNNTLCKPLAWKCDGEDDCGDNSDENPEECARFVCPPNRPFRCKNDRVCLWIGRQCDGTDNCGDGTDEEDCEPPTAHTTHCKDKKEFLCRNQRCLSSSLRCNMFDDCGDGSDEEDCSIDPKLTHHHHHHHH
Briefly: BLI (Octet), LRP1.4 captured on anti-Penta-His biosensor, heme-hpx complex as analyte at 0.312-2.5 µM [LRP1.4]. How it is done: as §3, §4, §5
A general note: Biolayer interferometry detects binding as a change in optical thickness at a sensor tip.

The target in test [13] is T1, HuLRP1(1-24)-FLAG-HuLRP1(2481-2942)-8His …. Briefly: SPR, LRP1.3 tethered on NTA chip (capture cross link), heme-hpx (batch TO411122), 1:1 steady state fit, mean of N = 3.
The target is the same in test [14]. Briefly: SPR, LRP1.3 tethered on NTA chip, heme-hpx complex batch T0342022C as printed, 1:1 steady state fit, N = 1.
In test [15] the target is B1. Nature of the test: BLI (Octet), LRP1.1 captured on anti-Penta-His biosensor, heme-hpx complex as analyte at 0.312-2.5 µM [LRP1.1]. Here is the method:
as §3, §4, §5

Test [16] has as its target B1. Briefly: BLI (Octet), LRP1.2 captured on anti-Penta-His biosensor, heme-hpx complex as analyte at 0.312-2.5 µM [LRP1.2]. How it is done: as §3, §4, §5

As usually defined, the Kd is a measure of binding affinity in units of concentration. A lower Kd goes with higher affinity. A word on the koff: it is a measure of how fast the partners let go of each other. Higher therefore signals fast dissociation. As a reminder, the kon is a measure of how fast the partners come together. Read a low kon as slow association. Consider B1, for which the Kd was 2610 nM in test [1]; 1400 nM in test [2]; 1410 nM in test [3]; ~2000 nM in test [4]; 2630 nM in test [5]; 1350 nM in test [6]. Further, the Kd in [8] is 1400 nM; in test [9], 2620 nM; in test [10], 1400 nM; in test [11] it was 1460 nM; in test [13] it was 2620 nM; in [14], 1340 nM. The binding result in test [7] and in test [12] was “no binding (tested: 2.5 µM heme-hpx complex)” each time. For the same molecule, the off-rate constant (koff) in test [11] amounted to 0.0555 s⁻¹. Further, the kon in test [11] is 37900 M⁻¹ s⁻¹.

B2: HuLRP1(1-24)-FLAG-HuLRP1(25-113)-8His (huLRP1 soluble minireceptor, ligand binding domain I) (receptor)
chain: AIDAPDYKDDDDKKKTCSPKQFACRDQITCISKGWRCDGERDCPDGSDEAPEICPQSKAQRCQPNEHNCLGTELCVPMSRLCNGVQDCMDGSDEGPHCRELQGHHHHHHHH
notes: also called LPR1 domain I; LRP1 domain 1
Consider B2, for which the binding result in test [15] is recorded as “no binding (tested: 2.5 µM heme-hpx complex)”.

B3: HuLRP1(1-24)-FLAG-HuLRP1(806-1183)-8His (huLRP1 soluble minireceptor, ligand binding domain II) (receptor)
chain: AIDAPDYKDDDDKKKCRVNNGGCSSLCLATPGSRQCACAEDQVLDADGVTCLANPSYVPPPQCQPGEFACANSRCIQERWKCDGDNDCLDNSDEAPALCHQHTCPSDRFKCENNRCIPNRWLCDGDNDCGNSEDESNATCSARTCPPNQFSCASGRCIPISWTCDLDDDCGDRSDESASCAYPTCFPLTQFTCNNGRCININWRCDNDNDCGDNSDEAGCSHSCSSTQFKCNSGRCIPEHWTCDGDNDCGDYSDETHANCTNQATRPPGGCHTDEFQCRLDGLCIPLRWRCDGDTDCMDSSDEKSCEGVTHVCDPSVKFGCKDSARCISKAWVCDGDNDCEDNSDEENCESLACRPPSHPCANNTSVCLPPDKLCDGNDDCGDGSDEGELCDHHHHHHHH
notes: also called LRP1.2; LPR1 domain II
For B3, the binding result in test [16] is “no binding (tested: 2.5 µM heme-hpx complex)”.

The record behind these values is patent publication US20240101640A1 (CSL BEHRING, published 2024).
